{"source": "paper PMC4705923", "about": "“Structural Insights into the MMACHC-MMADHC Protein Complex Involved in Vitamin B12 Trafficking*” (The Journal of Biological Chemistry, 2015)", "key": {"[1]": {"molecular_target": "T1, full-length human MMACHC (HsMMACHCFL) (human), Q9Y4U1", "T1 chain": "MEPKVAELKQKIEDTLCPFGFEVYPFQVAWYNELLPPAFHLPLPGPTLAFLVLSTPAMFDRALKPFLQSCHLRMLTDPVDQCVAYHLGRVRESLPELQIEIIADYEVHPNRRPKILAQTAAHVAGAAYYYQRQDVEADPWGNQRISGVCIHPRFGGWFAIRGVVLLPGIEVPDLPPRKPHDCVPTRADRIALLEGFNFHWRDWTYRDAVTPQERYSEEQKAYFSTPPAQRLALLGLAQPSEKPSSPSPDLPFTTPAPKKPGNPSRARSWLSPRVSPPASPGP", "assay": "native gel or EMSA; blue native-PAGE of single proteins, 25 μM; MMACHC alone and with MeCbl and GSH; MMADHC truncations alone", "details": "remark: other sources report otherwise"}, "untagged HsMMACHCΔC": {"molecular_target": "T2, untagged HsMMACHCΔC (human, UniProt Q9Y4U1 1-235)", "T2 construct": "human MMACHC lacking the C-terminal Pro-rich region (aa 236-282); Form used for SAXS; not shown: His6, N-terminal, cleaved", "T2 sequence (looked up)": "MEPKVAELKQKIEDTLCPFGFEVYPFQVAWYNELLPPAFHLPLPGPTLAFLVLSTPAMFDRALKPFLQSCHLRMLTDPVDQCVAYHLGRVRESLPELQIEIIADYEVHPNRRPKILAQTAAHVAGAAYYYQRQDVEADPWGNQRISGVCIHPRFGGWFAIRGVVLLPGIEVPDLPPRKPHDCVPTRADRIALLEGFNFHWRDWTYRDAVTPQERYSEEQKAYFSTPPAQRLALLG", "assay": "SAXS; complex reconstituted from untagged proteins with MeCbl and GSH, purified by size-exclusion chromatography, 17 mg/ml; in-line HPLC column or batch mode; Diamond B21", "details": "both partners purified"}, "HsMMACHCΔC": {"molecular_target": "T3, HsMMACHCΔC (human, UniProt Q9Y4U1 1-235)", "T3 construct": "human MMACHC lacking the C-terminal Pro-rich region (aa 236-282); Form used in BN-PAGE and size-exclusion chromatography; source: E. coli BL21(DE3)R3, purified (Ni-Sepharose, Superdex 200)", "T3 sequence (looked up)": "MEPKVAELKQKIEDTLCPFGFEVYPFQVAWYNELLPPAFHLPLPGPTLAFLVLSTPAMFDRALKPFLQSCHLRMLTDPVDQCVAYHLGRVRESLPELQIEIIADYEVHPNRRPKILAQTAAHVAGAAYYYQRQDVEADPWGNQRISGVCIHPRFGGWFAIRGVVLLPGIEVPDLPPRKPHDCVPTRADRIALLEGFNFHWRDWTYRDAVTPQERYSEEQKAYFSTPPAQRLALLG", "assay": "SEC; analytical size-exclusion chromatography of the two proteins with MeCbl and GSH; molecular weights from a calibration curve", "details": "both partners purified"}, "[2]": {"molecular_target": "T4, full-length human MMACHC (HsMMACHCFL) (human, UniProt Q9Y4U1 1-282)", "T4 construct": "human MMACHC, full length (C-terminal Pro-rich region is aa 236-282); source: E. coli BL21(DE3)R3, purified (Ni-Sepharose, Superdex 200)", "T4 sequence (looked up)": "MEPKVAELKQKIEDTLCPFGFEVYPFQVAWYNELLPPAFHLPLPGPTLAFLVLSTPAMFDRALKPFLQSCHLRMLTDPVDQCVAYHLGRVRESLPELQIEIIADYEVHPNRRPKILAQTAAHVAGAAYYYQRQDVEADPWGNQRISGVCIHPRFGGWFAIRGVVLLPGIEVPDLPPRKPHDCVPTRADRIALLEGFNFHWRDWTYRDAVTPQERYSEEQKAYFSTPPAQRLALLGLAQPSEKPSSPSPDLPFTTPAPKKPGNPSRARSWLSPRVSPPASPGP", "assay": "native gel or EMSA; blue native-PAGE; 25 μM of each protein with 50 μM MeCbl and 8 mM GSH, preincubated in the dark at room temperature for 1 h; complex judged by an additional band", "details": "both partners purified"}, "[3]": {"molecular_target": "T4, full-length human MMACHC (HsMMACHCFL)", "assay": "native MS; about 4 mg/ml MMADHC and MMACHC incubated with 0.5 mM MeCbl and 2 mM reduced GSH, desalted into 50 mM ammonium acetate pH 6.5; Q-TOF, electrospray, positive ion mode", "details": "both partners purified"}}}
{"binder": "full-length human MMACHC (HsMMACHCFL), Q9Y4U1 1-282 (natural protein) MEPKVAELKQKIEDTLCPFGFEVYPFQVAWYNELLPPAFHLPLPGPTLAFLVLSTPAMFDRALKPFLQSCHLRMLTDPVDQCVAYHLGRVRESLPELQIEIIADYEVHPNRRPKILAQTAAHVAGAAYYYQRQDVEADPWGNQRISGVCIHPRFGGWFAIRGVVLLPGIEVPDLPPRKPHDCVPTRADRIALLEGFNFHWRDWTYRDAVTPQERYSEEQKAYFSTPPAQRLALLGLAQPSEKPSSPSPDLPFTTPAPKKPGNPSRARSWLSPRVSPPASPGP", "values": [{"measurement": "stoichiometry N", "setting": "[1]", "result": 2}]}
{"binder": "untagged MmMMADHCΔ128 (domain or fragment, Mus musculus, UniProt Q99LS1 129-296, looked up, mouse MMADHC aa 129-296; Form used for SAXS; not shown: His6, N-terminal, cleaved) PVEQEINSAETYFESAKVECAIQTCPELLRRDFESLFPEVANSKLMILTVTQKTENDMTVWSEEVEVEREVLLEKFISGAKEICYALRAEGYWADFIDPSSGVAFFGPYTNNTLFETDERYRHLGFSVDDLGCCKVIRHSLWGTHVVVGSIFTNATADSSIMRKLSGN", "values": [{"measurement": "stoichiometry N", "setting": "untagged HsMMACHCΔC", "result": 1}]}
{"binder": "MmMMADHCΔ128 (M. musculus MMADHC aa 129-296) (domain or fragment, Mus musculus, UniProt Q99LS1 129-296, looked up, Form used in BN-PAGE and size-exclusion chromatography; source: E. coli BL21(DE3)R3, purified (Ni-Sepharose, Superdex 200)) PVEQEINSAETYFESAKVECAIQTCPELLRRDFESLFPEVANSKLMILTVTQKTENDMTVWSEEVEVEREVLLEKFISGAKEICYALRAEGYWADFIDPSSGVAFFGPYTNNTLFETDERYRHLGFSVDDLGCCKVIRHSLWGTHVVVGSIFTNATADSSIMRKLSGN", "values": [{"measurement": "stoichiometry N", "setting": "HsMMACHCΔC", "result": 1}]}
{"binder": "HsMMADHCΔ61 (domain or fragment, human, UniProt Q9H3L0 62-296, looked up, human MMADHC (296 aa) with N-terminal truncation Δ61; by analogy with MmMMADHCΔ128 = aa 129-296; source: E. coli BL21(DE3)R3, purified (Ni-Sepharose, Superdex 200)) MGPFGPQDQRFQLPGNIGFDCHLNGTASQKKSLVHKTLPDVLAEPLSSERHEFVMAQYVNEFQGNDAPVEQEINSAETYFESARVECAIQTCPELLRKDFESLFPEVANGKLMILTVTQKTKNDMTVWSEEVEIEREVLLEKFINGAKEICYALRAEGYWADFIDPSSGLAFFGPYTNNTLFETDERYRHLGFSVDDLGCCKVIRHSLWGTHVVVGSIFTNATPDSHIMKKLSGN", "values": [{"measurement": "binding result", "setting": "[2]", "result": "binds"}]}
{"binder": "HsMMADHCΔ123 (domain or fragment, human, UniProt Q9H3L0 124-296, looked up, human MMADHC (296 aa) with N-terminal truncation Δ123; source: E. coli BL21(DE3)R3, purified (Ni-Sepharose, Superdex 200)) QGNDAPVEQEINSAETYFESARVECAIQTCPELLRKDFESLFPEVANGKLMILTVTQKTKNDMTVWSEEVEIEREVLLEKFINGAKEICYALRAEGYWADFIDPSSGLAFFGPYTNNTLFETDERYRHLGFSVDDLGCCKVIRHSLWGTHVVVGSIFTNATPDSHIMKKLSGN", "values": [{"measurement": "stoichiometry N", "setting": "[3]", "result": 1}]}
{"binder": "HsMMADHCΔ123-D226A (domain or fragment, human, UniProt Q9H3L0 124-296, looked up, human MMADHC Δ123 construct with p.D226A (stretch 2); also called p.D226A; source: E. coli BL21(DE3)R3, purified (Ni-Sepharose, Superdex 200)) QGNDAPVEQEINSAETYFESARVECAIQTCPELLRKDFESLFPEVANGKLMILTVTQKTKNDMTVWSEEVEIEREVLLEKFINGAKEICYALRAEGYWADFIAPSSGLAFFGPYTNNTLFETDERYRHLGFSVDDLGCCKVIRHSLWGTHVVVGSIFTNATPDSHIMKKLSGN", "values": [{"measurement": "binding result", "setting": "[2]", "result": "binds"}]}
{"binder": "HsMMADHCΔ123-M186A (domain or fragment, human, UniProt Q9H3L0 124-296, looked up, human MMADHC Δ123 construct with p.M186A (stretch 1); also called p.M186A; source: E. coli BL21(DE3)R3, purified (Ni-Sepharose, Superdex 200)) QGNDAPVEQEINSAETYFESARVECAIQTCPELLRKDFESLFPEVANGKLMILTVTQKTKNDATVWSEEVEIEREVLLEKFINGAKEICYALRAEGYWADFIDPSSGLAFFGPYTNNTLFETDERYRHLGFSVDDLGCCKVIRHSLWGTHVVVGSIFTNATPDSHIMKKLSGN", "values": [{"measurement": "binding result", "setting": "[2]", "result": "binds"}]}
{"binder": "HsMMADHCΔ123-L259P (domain or fragment, human, UniProt Q9H3L0 124-296, looked up, human MMADHC Δ123 construct with p.L259P (stretch 3); also called p.L259P; source: E. coli BL21(DE3)R3, purified (Ni-Sepharose, Superdex 200)) QGNDAPVEQEINSAETYFESARVECAIQTCPELLRKDFESLFPEVANGKLMILTVTQKTKNDMTVWSEEVEIEREVLLEKFINGAKEICYALRAEGYWADFIDPSSGLAFFGPYTNNTLFETDERYRHLGFSVDDPGCCKVIRHSLWGTHVVVGSIFTNATPDSHIMKKLSGN", "values": [{"measurement": "binding result", "setting": "[2]", "result": "binds"}]}
{"binder": "HsMMADHCΔ153 (domain or fragment, human, UniProt Q9H3L0 154-296, looked up, source: E. coli BL21(DE3)R3, purified (Ni-Sepharose, Superdex 200)) PELLRKDFESLFPEVANGKLMILTVTQKTKNDMTVWSEEVEIEREVLLEKFINGAKEICYALRAEGYWADFIDPSSGLAFFGPYTNNTLFETDERYRHLGFSVDDLGCCKVIRHSLWGTHVVVGSIFTNATPDSHIMKKLSGN", "values": [{"measurement": "binding result", "setting": "[2]", "result": "binds"}]}
